Data on 2 molecules can be found in patent publication US20020086983A1 (THOMAS JEFFERSON UNIVERSITY, published 2002).

Assay [1] deals with LexA-FLAME-1-FDH (residues 1-160) (human, UniProt O15519 1-160). In words: yeast two-hybrid assay.
In the next assay the target is T1, T7-FLAME-2 (Homo sapiens (Human), UniProt O75618 1-318).
T1 sequence: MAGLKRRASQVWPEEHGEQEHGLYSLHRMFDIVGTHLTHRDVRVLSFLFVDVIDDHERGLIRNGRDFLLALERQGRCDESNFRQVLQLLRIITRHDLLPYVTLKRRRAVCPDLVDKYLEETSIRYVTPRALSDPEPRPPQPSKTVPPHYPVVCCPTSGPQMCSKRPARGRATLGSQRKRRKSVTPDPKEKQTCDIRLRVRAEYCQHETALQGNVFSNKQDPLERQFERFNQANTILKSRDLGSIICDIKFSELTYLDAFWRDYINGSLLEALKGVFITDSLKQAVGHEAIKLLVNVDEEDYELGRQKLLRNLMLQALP
In words: co-immunoprecipitation from transfected 293T cells with Flag-tagged Fas, with or without T7-FADD.

Protocol for T7-FLAME-2: After 34-36 h, extracts were prepared and immunoprecipitated with a monoclonal antibody to the Flag-epitope. […] Cells were lysed in a lysis buffer (50 mM Tris, pH 7.6, 150 mM NaCl, 0.1 NP-40) and incubated with anti Flag-M5 monoclonal antibody (IBI Kodak). The immune complexes were precipitated with protein-A/G-Sepharose, washed and then eluted by boiling in SDS-sample buffer. The eluted proteins were resolved by SDS-PAGE and detected by Western analysis with a HRP-conjugated T7-antibody (Novagen). The samples were analyzed by SDS-PAGE and Western blotted with a horseradish peroxidase (HRP)-conjugated T7-antibody. All extracts were immunoblotted with anti-Flag and anti-T7 to verify expression of the encoded proteins.

B1: B42-FADD-DED (murine FADD-DED, residues 1-78) (other, UniProt Q61160 1-78, looked up, not shown: large carriers)
chain: MDPFLVLLHSLSGSLSGNDLMELKFLCRERVSKRKLERVQSGLDLFTVLLEQNDLERGHTGLLRELLASLRRHDLLQR
notes: range 1-78
Turning to B1, the binding result in assay [1] was “binds”.

B2: Flag-tagged Fas (receptor, UniProt P25445 26-335, looked up, not shown: small tags and cut ends)
chain: QVTDINSKGLELRKTVTTVETQNLEGLHHDGQFCHKPCPPGERKARDCTVNGDEPDCVPCQEGKEYTDKAHFSSKCRRCRLCDEGHGLEVEINCTRTQNTKCRCKPNFFCNSTVCEHCDPCTKCEHGIIKECTLTSNTKCKEEGSRSNLGWLCLLLLPIPLIVWVKRKEVQKTCRKHRKENQGSHESPTLNPETVAINLSDVDLSKYITTIAGVMTLSQVKGFVRKNGVNEAKIDEIKNDNVQDTAEQKVQLLRNWHQLHGKKEAYDTLIKDLKKANLCTLAEKIQTIILKDITSDSENSNFRNEIQSLV
notes: Expressed in 293T cells and immunoprecipitated with the anti-Flag antibody
With B2, the binding result in the assay with T7-FLAME-2 was “no binding”.
